Assay [1] addresses canine PD-1 (canine). As to the kind of experiment: flow cytometry; row 1*10^3; Anti-mouse IgGFc-Alexa Fluor 647(1:500). A general note: In flow cytometry, cells or beads pass a laser one at a time.
For assay [2], the target named is human BTLA (human) (UniProt Q7Z6A9). The assay is described as above.
For assay [3], the target named is canine PD-1 (canine). Kind of assay: flow cytometry; row 1*10^4; Anti-mouse IgGFc-Alexa Fluor 647(1:500).
Assay [4] addresses human BTLA (human) (UniProt Q7Z6A9). The description is as above.
Assay [5] concerns the target canine PD-1 (canine). As to the kind of experiment: flow cytometry; row 1*10^5; Anti-mouse IgGFc-Alexa Fluor 647(1:500).
Assay [6] addresses human BTLA (human) (UniProt Q7Z6A9). The assay is described as above.

UniProt Q7Z6A9, sequence (Q7Z6A9 31-157 limits assumed): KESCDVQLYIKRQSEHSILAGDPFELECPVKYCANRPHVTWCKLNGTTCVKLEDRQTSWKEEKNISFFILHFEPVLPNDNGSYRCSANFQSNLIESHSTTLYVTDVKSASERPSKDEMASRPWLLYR

In the case of NC, the percent of cells in the gate worked out at 0.155% with canine PD-1 (canine) [1]; 0.406% in the assay with human BTLA (human) [2]; 0.068% with canine PD-1 (canine) [3]; 1.2% with human BTLA (human) [4]; 0.273% in the assay with canine PD-1 (canine) [5]; 0.841% in the assay with human BTLA (human) [6].

(Values after US20230064196A1.)
